Data taken from patent US20230340555A1, “PRODUCTION OF GLYCOSYLATED CANNABINOIDS” (WILLOW BIOSCIENCES, INC., priority 2020, published 2023).

Experiments:
[1] = test system: CN3 yeast strain host cells; assay: Detection of glycosylated cannabinoids and cannabinoid precursors in yeast cells expressing UDP-glycosyl transferase (HPLC-MS); format: cell-based; design: key to CBDA-glc / OLA-glc / CBGA-glc / CBGA-(glc)2 / CBD-glc / CBD-(glc)2 / OLA-(glc)2 / CBGA-glucuronic acid: (+) represents the lowest detected quantities; (++), (+++), and (++++) signify relative increasing intermediate detected levels; (++), (+++), and (++++) signify relative increasing intermediate detected levels; (++), (+++), and (++++) signify relative increasing intermediate detected levels; (+++++) represents the highest detected quantities; No detectable levels of a glycosylated cannabinoid compound or glycosylated cannabinoid precursor compound are indicated by “n.d.”; settings: for CBD-(glc)2 / CBD-glc: 0.5 g/L CBD; for production of glycosylated cannabinoids or cannabinoid precursor compounds: pellet or supernatant of recombinant yeast host cells transformed with the UGT
Excerpt: CN3 yeast strain host cells were transformed as described in Example 1 with one of the following heterologous UGT genes: (1) AtUGT73C6, (2) AtUGT73B4, (3) AtUGT71 D1, (4) AtUGT76E12, (5) AtUGT88A1, (6) HaUGT76G1-L, (7) At5g49690, (8) AtUGT76C4, (9) CsUGT73C6, (10) SrUGT76C1, (11) AtUGT85A3, (12) AtUGT73B1, (13) Atg65550, (14) AtUGT76B1, (15) ATUGT76B1, (16) CsUGT75B2, (17) CsUGT73B4, (18) CsUGT73B1, (19) CsUGT75D1-DN11028, and (20) CsUGT71D1-DN48028. The transformed host cells were pre-grown overnight in yeast extract peptone dextrose (YPD) growth medium and then back diluted into yeast extract peptone galactose (YPG) to OD600 = 0.2. […] Strains were incubated for 20 h at 28° C. rotating at 600 RPM in an EPOCH|2 microplate reader (BioTek). Subsequently, samples were treated with an extraction solvent (80 % Acetonitrile, 20 % Methanol) for 1 hour rotating at 100 RPM. After 20 minutes centrifugation at 12,000 RPM, the supernatant was filtered with a basix 13 mm syringe filter (0.22 µm pore size, Nylon membrane) and transferred to a new tube for further analysis.
Glycosylated cannabinoid compounds and glycosylated cannabinoid precursor compounds were assayed in the supernatant and the cellular pellet employing HPLC and HPLC-MS analysis. HPLC and HPLC-MS analysis was carried out as described below to detect the following glycosylated cannabinoid and cannabinoid precursor compounds: CBGA monoglucoside, CBGA diglucoside, CBDA monoglucoside, CBDA diglucoside, CBGA glucuronic acid, CBD monoglucoside, CBD diglucoside, olivetolic acid monoglucoside (“OliAcid monoglucoside”), olivetolic acid diglucoside (“OliAcid diglucoside”).
HPLC analysis was carried out on an Agilent Technologies 1290 Infinity system, consisting of a vacuum degasser, a binary pump, a thermostated autosampler, a thermostated column compartment and a diode array detector (DAD). A Zorbax Eclipse Plus EC-18 column (2.1 × 50 mm, 1.8 µm, Agilent, USA) was used with a mobile phase composed of 0.1% formic acid in both (A) water with 0.2 % Formic Acid and (B) Acetonitrile with 0.2 % Formic Acid. The chromatographic conditions were set as follows: 0.0-8.0 min linear gradient from 5 to 95% B; 8.1-9.09 min […], 9.10-11.0 min 5 to 95% A for equilibration of the column with the initial conditions. The flow rate was set at 0.4 ml/min. The column temperature was set at 40° C. The sample injection volume was 5 µL. The UV/DAD acquisitions were carried out in the range 190-400 nm and chromatograms were acquired at 265 and 350 nm.
HPLC-MS analysis was carried out to confirm the identity of the HPLC peaks using an Agilent Technologies 6530 Accurate-Mass quadrupole time of flight (QToF) mass spectrometer operating in negative ionization (ESI -) mode. The mass spectrometer experimental parameters were set as follows: the capillary voltage was 3.5 kV, the nebulizer (N2) pressure was 35 psi, the drying gas temperature was 350° C., the drying gas flow was 11 L/min and the skimmer voltage was 65 V. Data were acquired by Agilent Mass Hunter software. The mass spectrometer was operated in full-scan mode in the m/z range 50-1100. Extracted ion chromatograms (EICs) were obtained with an accuracy of 10 ppm m/z from total ion chromatogram (TIC) employing the m/z corresponding to the molecular ions [M-H]^- 385.1504 for Olivetolic Acid Mono-Glucoside, 547.2032 for Olivetolic Acid di-Glucoside, 521.2756 for CBGA Mono-Glucoside, 683.3284 for CBGA Di-Glucoside, 535.2549 for CBGA Glucuronic Acid, 519.2600 for CBDA Mono-Glucoside, 475.2701 for CBD Mono-Glucoside, 637.3302 for CBD Di-Glucoside.
The glycosylated cannabinoid compounds and glycosylated cannabinoid precursor compounds were detected in a relative and semi-quantitative fashion. […]

[2] = test system: bacterial strain BL21 (DE3); assay: CBDA depletion in BL21 (DE3) strains expressing UGTs (UHPLC-MS); format: cell-based; settings: 0.1 mM CBDA, induced with 100 µM IPTG for 4h at 37° C. vs controls without induction
Excerpt: The following cDNAs encoding UGTs from Arabidopsis thaliana, Cannabis sativa and Helianthus annuus UGTs were cloned into pDONOR-zeo (as described in Example 1) and then recombined into the prokaryotic expression vector pDEST14: AtUGT73C6 (SEQ ID NO: 3), AtUGT88A1 (SEQ ID NO: 5), AtUGT71 D1 (SEQ ID NO: 7), AtUGT73B4 (SEQ ID NO: 9), AtUGT76C4 (SEQ ID NO: 11), AtUGT76E12 (SEQ ID NO: 13), and At5g49690 (SEQ ID NO: 17), CsUGT73C6 (SEQ ID NO: 15), HaUGT76G1L (SEQ ID NO: 1), and SrUGT76G1 (SEQ ID NO: 19). Host cells from the bacterial strain BL21 (DE3) were transformed individually pDEST14 vector.
A BL21 (DE3) single colony was inoculated in liquid media and incubated at 37° C. overnight. The bacterial cultures were diluted to a final 0.6 OD and CBDA was added to a final concentration of 0.1 mM. The cultures were split, and half was induced with 100 µM IPTG for 4h at 37° C. to express the UGTs and the other half was kept as controls without induction of UGT expression.
Subsequently, samples were treated with a 1:1 volume of acetonitrile for 15 minutes at 250 RPM. After 30 minutes centrifugation at 4,000 RPM, samples were diluted 1000-fold in the same solvent for further analysis.
CBDA depletion was assayed employing UHPLC-MS analysis. The instrument used was a Thermo Vanquish UHPLC connected to a Thermo TSQ Altis mass spectrometer. The UHPLC consists of a vacuum degasser, a ternary pump, a thermostated autosampler held at 5° C., and a thermostated column compartment. An Accucore C18 (150 × 2.2 mm, 2.6 µm, Thermo, USA) was used. The mobile phase is water with 0.1 % formic acid (A) and acetonitrile with 0.1 % formic acid (B) on a linear gradient (see Table 5). The flow rate was set at 0.800 mL/min. The column temperature was set at 30° C. The sample injection volume was 1 µL.
MS analyses were carried out in order to ensure the identity of the peaks and were performed on a Thermo TSQ Altis triple quadrupole mass spectrometer using electrospray ionization in negative mode. Compounds were analyzed using selected reaction monitoring using two ion pairs for quantitation and confirmation respectively.

[3] = 20 h growth, detected in PELLET, 0.05 mM hexanoic acid
[4] = 20 h growth, detected in PELLET
[5] = 20 h growth, detected in SUPERNATANT, 0.2 mM hexanoic acid
[6] = 20 h growth, detected in SUPERNATANT

B1: AtUGT73C6: UDP-glycosyl transferase from Arabidopsis thaliana, amino acid sequence SEQ ID NO: 4 (protein, listed as Arabidopsis thaliana)
chain: MAFEKNNEPFPLHFVLFPFMAQGHMIPMVDIARLLAQRGVLITIVTTPHNAARFKNVLNRAIESGLPINLVQVKFPYQEAGLQEGQENMDLLTTMEQITSFFKAVNLLKEPVQNLIEEMSPRPSCLISDMCLSYTSEIAKKFKIPKILFHGMGCFCLLCVNVLRKNREILDNLKSDKEYFIVPYFPDRVEFTRPQVPVETYVPAGWKEILEDMVEADKTSYGVIVNSFQELEPAYAKDFKEARSGKAWTIGPVSLCNKVGVDKAERGNKSDIDQDECLEWLDSKEPGSVLYVCLGSICNLPLSQLLELGLGLEESQRPFIWVIRGWEKYKELVEWFSESGFEDRIQDRGLLIKGWSPQMLILSHPSVGGFLTHCGWNSTLEGITAGLPMLTWPLFADQFCNEKLVVQILKVGVSAEVKEVMKWGEEEKIGVLVDKEGVKKAVEELMGESDDAKERRRRAKELGESAHKAVEEGGSSHSNITFLLQDIMQLAQSNN
In the case of B1, the CBDA-glc [1, 3] is reported as “+++”, the “CBGA-(glc)2” value [1, 3] is reported as “++” and the CBGA-glc [1, 3] is reported as “++++”. For the same molecule, the CBGA-glucuronic acid [1, 3] was “++”, the “OLA-(glc)2” value [1, 3] was “++” and the OLA-glc [1, 3] was “+++”. The “CBD-(glc)2” value [1, 4] was “++”, the CBD-glc [1, 4] was “+++” and the “CBGA-(glc)2” value [1, 5] was “+”. The CBGA-glc [1, 5] was “+”, the OLA-glc [1, 5] was “+++” and the “CBD-(glc)2” value [1, 6] was “++”. For the same molecule, the CBD-glc [1, 6] was “+++”, the “production of glycosylated cannabinoids or cannabinoid precursor compounds” value (shortened to “production”) [1] was “detected” and the “decrease in CBDA content” value [2] was 12%.

B2: CsUGT75B2: UDP-glycosyl transferase from Cannabis sativa, amino acid sequence SEQ ID NO: 32 (protein, listed as Cannabis sativa)
chain: MVQPRFLILAFPLQGTINPCLNLANQLIRVANAQVTFVTSVNAHRLIMTTHTVATTSNNLLSFSPFFDGYDEGVTDGKGFHDHFVEFKRRGWQAVGDILELGFKEGRPYTCLVYSILLTWAADVAATHNVPASMFWMQPATVFDVYYYYFHGHKEIICANTKNHSFSLSFPRIPLTMNLKDLPSLMVDSNYSYILTMLHEMYKDFEKESNNTKIILVNTFDELEPDALRAINKFNLIGIGPLITSKTSFSFRNYIEWLNTKPKKTVVYVSFGSILILKKQQMDEIAKGLLEFGHPFLWVIKEKNSSSKEGVHEDNIKNELSYKEELEKLGMIVPWCSQMEVLRNESLGCFVTHCGWNSTLESIVSGVPVVAFPQWTDQQTNAKLIEEMWKIGVRVKPDEDGIVKSEEIKRCLELVMSKNENRTEIVKNVKKWQNLTKEAMREGGSSEKNLITFVKSIHQ
B2 was tested, and the “production” value [1] was “No production”.

B3: CsUGT73B4: UDP-glycosyl transferase from Cannabis sativa, amino acid sequence SEQ ID NO: 34 (protein, listed as Cannabis sativa)
chain: MSKGHTIPLLHLARVLLNRHVTVTIFTTPANRSFITKFLPATSAAIVELPFPKNIPGVPNGVENTEDFPTMSMSMFYSLVLGTQNMKPDLDRALENIQTPVSFMVSDGFLWWTLDSASKLGFPRLVFYGMSHYAMAVYHSLFNSKKPKQTETETVVSDFPWIKLTRSEYDPSAQNGEDQSLAHEFMSKATEATNNSFGMIYNSFYELEPMFTDYWNQKVGPKSWPLGPLCLHDMKIESRGLVVHPWLDEKESSSVLYVAFGSQATVSSEQVREIAKGLEYSNVNFFWVLRKLEPEENKFLEEFEKRVKNRGIVVRDWVNQMEILKHKSVKGFFSHCGWNSVMESLSAGLPILGFPMMAEQHINAKMVVEEIKIGLRVKSYDGSLNGIVKSEEVSKMVKELMEGEVGKEMRKKVEEFAVMAHKAVQKGGSSWETLDLLLSSTKQRIHHY
B3 was tested, and the “production” value [1] was “No production”.

B4: CsUGT73B1: UDP-glycosyl transferase from Cannabis sativa, amino acid sequence SEQ ID NO: 36 (protein, listed as Cannabis sativa)
chain: MSKEIWVVPFFGQGHLFPSMELCKQIASRNINTLLVIPSNLSFSIPSSLRQYPLLQIVEIQPTSAPSAQPGPDPIDQPPHGNPDQFEMGLENLLQAQVTGPDSVRPICAILDVMMDWTTEVFNKFDIPTIGFFTSGACSAAMEYGLWKAQPIDLKPGEVRLLPGLPEEMAVTYLDTNQRPHQPPGPPLHLFGVGHQGPFVDGAHRPPGPPPPPYLGRAGPRQRGPPKHGSQPPWVDGLKGSIALMINTCDYLERPFIEYLTKQIGKPVWGVGPLLPEQFWNSVSSNSILHDHEIRTNRQSNVSEDDVIQWLDSKPRGSVLYVCFGTEVSPSMEEYSELADALEASTQPFIWVVHSGTGRSGPPPSRGPTQEDYFPHGLASQVGPKGLIINGWAPQLLILSHSSIGGFLTHCGWNSTVEAIGLGVPLLAWPIRGDQNYNAKLVVAHLKLGFMISDNLSEKIKKHEIVKGIKTLMGDDDIKSRARNLAAIFQKGFPISSTTNLDVFRDMINNFT
With B4 the “production” value [1] was “No production”.
